Laboratory results taken from US20200270310A1, “MAFG AS A POTENTIAL THERAPEUTIC TARGET TO RESTORE CHEMOSENSITIVITY IN PLATINUM-RESISTANT CANCER CELLS” (FUNDACÓIN PARA LA INVESTIGACIÓN BIOMÉDICA DEL HOSPITAL …, priority 2017, published 2020).

T1: MAFG peptide M4 (IVQLKQRRRTLKNRGYAASCR) (Homo sapiens, UniProt O15525 SEQ:49-69)
T1 chain: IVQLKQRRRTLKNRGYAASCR

B1: apMAFG11F (ssDNA)
DNA: GCGGATGAAGACTGGTGTCGCGAACCGGGTTACTTTTGTCGCGGGTCGTCGGATCTGTGCCCTAAATACGAGCAAC
B2: GCGGATGAAGACTGGTGTCGCGAACCGGGTTACTTTTGTCGCGGGTCGTCGGATCTGTGCCCTAAATACGAGCAAC (nucleic acid)
chain: B1 DNA
modifications: chemistry not given here
notes: DNA aptamer selected against the MAFG protein by SELEX
B3: apMAFG6F (ssDNA)
DNA: GCGGATGAAGACTGGTGTCGATGCATGTGTAGTGCATTTCGAGCCGTTCTATTGGTGTGCCCTAAATACGAGCAAC
B4: apMAFG3F (ssDNA)
DNA: GCGGATGAAGACTGGTGTGCTGTGCTTTGACGACTGTCTAGTGGGTTTTCTTCCCCCGGCCCTAAATACGAGCAAC
B5: GCGGATGAAGACTGGTGTGCTGTGCTTTGACGACTGTCTAGTGGGTTTTCTTCCCCCGGCCCTAAATACGAGCAAC (nucleic acid)
chain: B4 DNA
modifications: chemistry not given here
notes: as for B2

Columns and labels:
BSA = BSA (UniProt P02769 P02769:25-607); experiment: ELONA; background control; MAFG signal up to four times that of BSA; settings: label: 5' digoxigenin
H23R cells = experiment: Viability to CDDP after aptamer transfection (resistance index); format: cell-based, human; settings: aptamer 25 nM, CDDP 72 h
Procedure: FIG. 6. Viability curves combining the best dose of aptamers (25nM) and increasing doses of CDDP. Each experimental group was exposed for 72 h to 6 different CDDP concentrations after aptamers transfection; data were normalized to each untreated control, set to 100% and represent the mean±SD of at least 3 independent experiments performed in quadruplicate at each drug concentration for each cell line analyzed 25nM of aptamers and increasing doses of CDDP in H23S/R cells.
Once identified the best dose of aptamers, cells were transfected with aptamers and treated with increased doses of CDDP to assay viability and ROS production as mentioned above. In parallel, for all the experiments, cells were seeded in 24-well plates for aptamers extraction and confirmation of aptamers transfection.
HEK293 and H23S/R cells were seeded into 96-well plates then transfected with 5, 12.5, 25, 75 and 100 nM of MAFG aptamers or treated with PBS-Mg using Jet Pei PolyPlus transfection reagent (PolyPlus Transfection, USA). The dose of 25 nM aptamer was afterwards used in combination with increased doses of CDDP to assay viability and ROS production as described above. To confirm the aptamer-transfection efficiency cells were seeded in 24-well plates for aptamer isolation and confirmation of aptamer transfection by quantitative analysis. A Myc-DDK-tagged ORF clone of MAFG the negative control pCMV6 were used for in transient transfection (OriGene, USA) in combination with MAFG-aptamers following the same procedure.

MAFG-Myc = molecular target: T2, MAFG-Myc (Homo sapiens, UniProt O15525); experiment: Enzyme-linked oligonucleotide assay (ELONA) of aptamers and aptamer populations; format: binding; settings: for affinity against MAFG: Example 1, individual aptamers; for binding capacity to the target: Example 3, individual sequences from SEL6MAFG; for binding signal relative to BSA protein: individual sequences from SEL6MAFG
T2 construct: Myc (C); DDK (FLAG)
Procedure: FIG. 4. Analysis of the affinity of the aptamers against MAFG. (A) Quantification of aptamer-MAFG complexes by qPCR comparing absence (dot pattern) or presence (filled pattern) of MAFG protein. […] Bars represent the mean±SEM of 2-3 experiments (B) Specificity binding assay of aptamers to MAFG performed by ELONA. MAFG-myc was plated at 50ng/well in 96-well plates followed by incubation with 5′ digoxigenin-labeled aptamers from RND40, SEL3MAFG and SEL6MAFG. The figure represents the mean±SEM of 3 independent experiments. p<0.01. (C) Aptacytochemistry in HEK-293T cells transiently transfected with MAFG-myc. Cells overexpressing MAFG were incubated with 5′ Alexafluor 488-conjugated aptamers from RND40, SEL3MAFG or SEL6MAFG (upper panel) or Myc antibody (lower panel). Confocal microscopy images corresponding to the staining of nuclei with Hoechst (blue), antibodies (red), and aptamers (green) are shown. Arrowhead indicates positive cells. Bar=13 μm. (D) Study of individual aptamers affinity performed by ELONA. Recombinant MAFG was plated at 50 ng/well in 96-well plates followed by incubation with 5′ digoxigenin-labeled individual aptamers apMAGF3F, apMAFG6F and apMAFG11F. The figure represents the mean±SD of 2 independent experiments. (E) Secondary structures of aptamers apMAGF3F, apMAFG6F and apMAFG11F obtained by bioinformatics sequence analysis using the mFold software taking into account the lower free energy (AG).
(ii) Enzyme-linked oligonucleotide assay (ELONA): Aptamers were labeled by PCR using 5′ digoxigenin-labeled F3/5′ digoxigenin-labeled R3 primers (IBA Life Sciences). To assess the enrichment of the selected population and the affinity of the individual aptamers for the target, MAFG-Myc (50 ng) was incubated with the rounds 3, 6 of aptamers or the RND40 library. OD405nm values were determined using a SpectraFluor microplate reader (TECAN, Barcelona, Spain).

[1] = system: human MAFG peptides M1-M10; experiment: ELONA of aptamers with 10 MAFG peptides; format: binding; settings: digoxigenin aptamer 20 nM, 1 μg peptide, absorbance at 405 nm
Procedure: (§1) FIG. 9. Characterization of the interaction of aptamers with MAFG. ELONAS in which the Aptamers bound to digoxigenin (20 nM) were incubated 1 hour at 37° C. with 10 peptides (1 μg) previously attached to the plate overnight. After incubating 1 hour with antidigoxigenin-Peroxidase 1/1000, ABTS was added and at 10 minutes the absorbance at 405 nm was measured.
In order to identify compounds of the invention and starting from the amino acidic sequence of human MAFG (NCBI Reference Sequence: NP_116100.2) of: SEQ ID NO 2: […]); we designed the following 10 peptides (please refer to table below):
Peptide M4, amino acids 49-68 corresponds to the basic MAFG region containing the tyrosine residue (Tyr64), as well as the arginine residue (Arg57) required for binding to the DNA, in addition to a nuclear localization signal.

[2] = molecular target: T3, MAFG in H23S and H23R cells (Homo sapiens, UniProt O15525); experiment: Aptacytochemistry with digoxigenin-labeled individual aptamers; format: cell-based
T3 construct: endogenous in cells; host or cells: H23S and H23R (NSCLC cells, fixed)
Procedure: Following the methodology described above, H23R cells were incubated with 6 pmol of digoxigenin-labeled aptamers (IBA Life Sciences) in selection buffer for 1 hour at room temperature. Subsequently, cells were washed three times with PBS and incubated with anti-digoxigenin conjugated with 5′ AlexaFluor 488 (R&D systems, USA) at 1/500 dilution in blocking buffer for 1 hour at room temperature, as secondary antibody. Finally, the cells were mounted on glass slides using glycerol-buffer containing p-phenylenediamine and 1/750 dilution of Dapi for nuclear staining. Controls were made by omitting the aptamer. Colocalization was assessed by confocal microcopy as described in (iii).

[3] = molecular target: T1, MAFG peptide M4 (IVQLKQRRRTLKNRGYAASCR); experiment: ELONA; 20 nM aptamer, 1 ug peptide plated, 37 C 1 h; values only in figure; epitope M4 (residues 57-75 of MAFG); settings: protein: synthetic; tags: synthetic peptide; label: 5' digoxigenin
Procedure: as §1

[4] = molecular target: T4, MAFG in tumor samples of patients with lung cancer (Homo sapiens, UniProt O15525); experiment: Aptahistochemistry in NSCLC tumor samples; settings: 20 tumor samples classified by MAFG mRNA levels
T4 construct: from tissue; host or cells: Formalin-fixed paraffin-embedded NSCLC tumour sections
Procedure: The formalin-fixed and paraffin-embedded tissue sections of patients with lung cancer were baked 15 minutes at 60° C. Deparaffinization was performed by two washes of xylene for 10 minutes each. Tissue sections were rehydrated by a sequential wash in 100%, 90%, 80%, 70% ethanol and distilled water for 5 minutes each. Antigen retrieval was achieved by heat treatment in a pressure cooker for 2 minutes in 10 mM citrate buffer (pH 6.5). Endogenous peroxidase activity of tissues was blocked with 0.3% […]. The primary binding reaction was performed with 10 pmol/ml of digoxigenin-conjugated aptamers overnight at room temperature. The secondary binding reaction was performed with anti-digoxigenin conjugated with POD (Roche; 1/200 dilution in TBS) for 45 minutes. Staining was done using the Immunoperoxidase DAB kit (Master Diagnostica), according to the manufacturer's instructions. The sections were counterstained with hematoxylin.
We then took advantage of the aptacytochemistry to perform an aptamer-based histochemistry in 20 tumor samples from our cohort of patients with known mRNA levels of MAFG. […] To determine the correlation between the aptahistochemistry and the mRNA levels of MAFG, we calculated the percentage of cells with positive staining from the total number of cells computed at four different areas randomly selected for each sample.

Row | Molecule | binding result (BSA) | CDDP resistance index after aptamer transfection (H23R cells) | affinity against MAFG (MAFG-Myc) | binding capacity to the target (MAFG-Myc) | binding signal relative to BSA protein (MAFG-Myc) | interaction of aptamers with the 10 MAFG peptides by ELONA [1] | number of dots per nucleus, H23R versus H23S [2] | binding result [3] | percentage of positive cells in samples with higher MAFG levels [4] | cellular localization of the aptamer [2]
1 | B1 | no binding | – | – | – | – | – | – | – | – | –
2 | B2 | – | no changes | high affinity | high binding capacity to the target in the nanomolar range | four times that of the BSA protein | recognized peptide M4 | no differences | – | – | –
3 | B3 | no binding | – | – | – | – | – | – | binds | – | –
4 | B4 | no binding | – | – | – | – | – | – | – | – | –
5 | B5 | – | no changes | high affinity | high binding capacity to the target in the nanomolar range | four times that of the BSA protein | recognized peptide M4 | remarkable differences | – | significant increment in the percentage of positive cells | also present in the cytoplasm
